Where a chain is given by its changes, count along the chain named.
T1: cynomolgus monkey transferrin receptor 1 (cynomolgus monkey (Macaca fascicularis), UniProt Q5RDH6 89-760 (Pongo abelii entry), limits assumed)
T1 construct: also called cyTfR1; Cyno TfR1
T1 chain: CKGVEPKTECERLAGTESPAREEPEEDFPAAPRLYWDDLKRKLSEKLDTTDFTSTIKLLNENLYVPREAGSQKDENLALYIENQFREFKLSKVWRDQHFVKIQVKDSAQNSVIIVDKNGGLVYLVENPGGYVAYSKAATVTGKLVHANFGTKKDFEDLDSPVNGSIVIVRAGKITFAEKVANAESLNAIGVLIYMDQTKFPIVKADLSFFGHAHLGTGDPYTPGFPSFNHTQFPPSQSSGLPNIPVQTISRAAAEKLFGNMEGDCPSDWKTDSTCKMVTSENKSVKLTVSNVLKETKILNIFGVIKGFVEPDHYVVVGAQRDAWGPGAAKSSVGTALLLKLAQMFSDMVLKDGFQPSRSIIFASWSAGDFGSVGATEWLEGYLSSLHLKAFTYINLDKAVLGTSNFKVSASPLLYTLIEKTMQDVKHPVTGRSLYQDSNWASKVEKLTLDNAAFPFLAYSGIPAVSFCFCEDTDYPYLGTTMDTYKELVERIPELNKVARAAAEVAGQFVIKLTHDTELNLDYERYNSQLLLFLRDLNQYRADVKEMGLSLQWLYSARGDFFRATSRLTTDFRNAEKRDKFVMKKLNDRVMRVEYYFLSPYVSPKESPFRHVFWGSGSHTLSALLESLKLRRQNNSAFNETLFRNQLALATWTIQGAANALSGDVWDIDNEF

B1: 8-K6 (antibody, V domains shown)
VH: QVHLQQPGAELVKPGASVKMSCKASGYTFTSYWITWVKQRPGQGLEWIGDIFPNSGRTNYDEKFKSKATLTVDTSSSTAYMQLSSLTSEDSAVYFCAREGNFGSLDYWGQGTTLTVSS
VL: QIVLTQSPAIMSASPGEKVTMTCSANSNLNYMNWYHQKSGTSPKRWIYDTSKLASGVPARFSASGSGTSYSLTISSMEAEDAATYYCQQWSRNPLTFGAGTRLELK
notes: Tested as a mouse monoclonal IgG; also called 8-K06
B2: 5-H12 (antibody, V domains shown)
VH: QIQLQQSGPELVRPGASVKISCKASGYSFTDYCINWVNQRPGQGLEWIGWIYPGSGNTRYSERFKGKATLTVDTSSNTAYMQLSSLTSEDSAVYFCAREDYYPYHGMDYWGQGTSVTVSS
VL: DIVLTQSPTSLAVSLGQRATISCRASESVDGYDNSFMHWYQQKPGQPPKLLIFRASNLESGIPARFSGSGSRTDFTLTINPVEAADVATYYCQQSSEDPWTFGGGTKLEIK
notes: Tested as a mouse monoclonal IgG
B3: 3-M12 (antibody, V domains shown)
VH: DVQLQESGPGLVKPSQSLSLTCSVTGYSITSGYYWNWIRQFPGNKLEWMGYITFDGANNYNPSLKNRISITRDTSKNQFFLKLTSVTTEDTATYYCTRSSYDYDVLDYWGQGTTLTVSS
VL: DIQMTQTTSSLSASLGDRVTISCRASQDISNFLNWYQQRPDGTVKLLIYYTSRLHSGVPSRFSGSGSGTDFSLTVSNLEQEDIATYFCQQGHTLPYTFGGGTKLEIK
notes: as for B2
B4: 9-K23 (antibody, V domains shown)
VH: QVTLKESGPGMLQPSQTLSLTCSFSGFSLNTYDVGVGWIRQPSGKGLEWLANIWWNDDKYYNSALKSRLTISKDTSNNQVFLKISSVDTADTATYYCTLYSYDGGFAYWGQGTLVTVSA
VL: QIVLTQSPAIMSASLGERVTMTCTASSSVSSSYLHWYQQKPGSSPKLWIYSTSNLASGVPARFSGSGSGTSYSLTISSMEAEDAATYYCHQYHRSPYTFGGGTKLEIK
notes: as for B2
B5: 9-D4 (antibody, V domains shown)
VH: QVQLQQSGTELARPGASVKLSCKASGFTFTDYGINWVKQRTGQGLEWIGEIYPSSGNSYYNEKFKAKATLTADKSSSTAYMELRSLTSEDSAVYFCARSTYYGSPIDYWGQGTTLTVSS
VL: DIVMTQSHKFMSTPVGDRVSITCKASQDVDTTVAWYQQKPGQSPKLLIYWASTRQIGVPDRFTGSGSGTDFTLTISNVQSEDLADYFCQQYSTYPLTFGGGTKLEIK
notes: Tested as a mouse monoclonal IgG; also called 9-D04
B6: 3-M9 (antibody, V domains shown)
VH: EVQLQQSGAELVRPGASVKLSCTASDFNIKDDYIHWVKQRPEQGLEWIGRIDPANGNTKYAPKFQDKATITADTSSNTAYLQLSSLTSEDTAVYYCALGYTYWGQGTTLTVSS
VL: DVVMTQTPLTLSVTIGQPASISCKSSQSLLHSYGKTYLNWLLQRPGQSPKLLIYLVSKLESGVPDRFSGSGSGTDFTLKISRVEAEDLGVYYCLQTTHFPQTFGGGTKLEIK
notes: Tested as a mouse monoclonal IgG; also called 3-M09
B7: 6-D3 (antibody, V domains shown)
VH: QVQLQQPGAELVKPGASVKMSCKASGYTFTRHWITWVKQRPGQGLEWIGDIYPGSGRTNYNEKFKSTATLTVDTSSSTAYMQLSSLTSEDSAVYYCARDGYLYINYFDYWGQGTTLTVSS
VL: ENVLTQSPAIMSASPGEKVTMTCSASSSVSFMHWFQQKSSTSPKLWIYDTSKLASGVPGRFSGSGSGSSYSLTISSMAAEDVATYYCFQGSGYPYTFGGGTKLEIK
notes: Tested as a mouse monoclonal IgG; also called 6-D03
B8: 8-O17 (antibody, V domains shown)
VH: QVQLKESGPGLVAPSQSLSITCTVSGFSLTNYGVHWVRQPPGKGLEWLVVIWNDGSATYNSALESRLSISKDNSKSQVFLKMNSLQTDDTAMYYCARHESSNPFAYWGQGTLVTVSA
VL: DILLTQSPAILSVSPGERVSFSCRASQSIGTSIHWYQQRTNGSPRLLIKSASESIAGIPSRFSGSGSGTDFTLSINSVESEDIADYYCQQNNRWPYTFGGGTKLEIK
notes: as for B2
B9: 4-C5 (antibody, V domains shown)
VH: QVQLQQSGAELMKPGASVKISCKATGYTFSNYWIEWVKQRPGHGLEWIGEILPGSGSTNYNENFKGKATFTADTSSNTAYMQLSSLTSEDSAVYYCARRGAYGNFHYWGQGTTLTVSS
VL: EIVLTQSPALMAASPGEKVTITCSVSSSISSSNLHWYQQKSETSPKPWIYGTSNLASGVPVRFSGSGSGTSYSLTISSMEAEDAATYYCQQWRSYPYTFGGGTKLEIK
notes: Tested as a mouse monoclonal IgG; also called 4-C05
B10: 8-D15 (antibody, V domains shown)
VH: QVQLKESGPGLVAPSQSLSITCTVSGFSLTSYAITWVRQSPGKGLEWLGLIWTGGGTNYNSALKSRLSISKDNSKSQVFLKMNSLQTDDTARYYCARIYDGYYRYFDVWGTGTTVTVSS
VL: RIVLTQTPKFLLVSAGDRVTMTCKASQSVSNDVAWYQQKPGQSPKLLIYYASNRYTGVPDRFTGSGYGTDFTFTISTVQAEDLAVYFCQQDYSSPWTFGGGTKLEIK
notes: as for B2
B11: 4-O12 (antibody, V domains shown)
VH: EVQLQQSGAELVRPGASVKLSCTASGFNIVDDYMHWVKQRPEQGLEWIGWIYPENADTEYASKFQGKATITADTSSNTAYLQLSSLTSEDTAVYYCTTATGTGWFAYWGQGTLVTVSA
VL: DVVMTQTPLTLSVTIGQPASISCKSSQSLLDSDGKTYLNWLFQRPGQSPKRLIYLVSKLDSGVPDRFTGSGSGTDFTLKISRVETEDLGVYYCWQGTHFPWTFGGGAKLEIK
notes: as for B2
B12: 2-H19 (antibody, V domains shown)
VH: EVQLQQSGAELVRSGASVKLSCTASGFNIKDYYMHWVKQRPEQGLEWIGWIDPESGDTEYAPKFQGRATMTADTSSNTAYMQLSSLTSEDTAVYYCYGHDYRVDCWGQGTSVTVSS
VL: DVVMTQTPLSLPVSLGDQASISCRSSQSLVHSNGNTYLHWYLQKPGQSPKLLIYKVSNRFSGVPDRFSGSGSGTDFTLKISRVEAEDLGVYFCSQSTHIPWTFGGGTKLEIK
notes: as for B2
B13: 4-J22 (antibody, V domains shown)
VH: EVQLQQSGAELVRSGASVKLSCTASGFNIKDYYIHWVKQRPEQGLEWIGWIDPENADTEYAPKFQGKATMTPDTSSNTAYLQLSSLTSEDTAVYYCYAWDYSMDYWGQGTSVTVSS
VL: B12 VL with P12S, T77I, S96N, I99V, W101Y, K108R
notes: as for B2
B14: 3-A4 (antibody, V domains shown)
VH: EVQLQQSGAELVRPGASVKLSCTASGFNIKDDYMYWVKQRPEQGLEWIGWIDPENGDTEYASKFQDKATVTADTSSNTAYLQLSSLTSEDTAVYYCTLWLRRGLDYWGQGTSVTVSS
VL: DIVMTQAAPSVPVTPGESVSISCRSSKSLLHSNGYTYLFWFLQRPGQSPQLLIYRMSNLASGVPDRFSGSGSGTAFTLRISRVEAEDVGVYYCMQHLEYPFTFGGGTKLEIK
notes: Tested as a mouse monoclonal IgG; also called 3-A04
B15: 3-E5 (antibody, V domains shown)
VH: EIQMKQSGAELVKPGASVKISCKASGYSFTGYNMNWVKQSHGKSLEWIGNINPYYGSTGYNQKFKGKATLTVDKSSSTAYMQLNSLTSEDSAVYYCARGDYGYDEGTWFAYWGQGTLVTVSA
VL: DIVMSQSPSSLAVSAGEKVTMSCKSSQSLLNSRTRKNYLAWYQQKPEQSPKLLIYWASTRESGVPDRFTGSGSGTDFTLTISSVQAEDLAVYYCKQSYNLPFTFGSGTKLEIK
notes: Tested as a mouse monoclonal IgG; also called 3-E05
B16: 9-C4 (antibody, V domains shown)
VH: EVQLMESGGDLVKPGGSLKLSCAASGFTFSSYGLSWVRQTPDKRLEWVATITSGGSYTYYPDSVKGRFTISRDNARNTLYLQMFSLKSEDTAMYYCALWSLDYWGQGTTLTVSS
VL: QIVLTQSPAIMSASPGEKVTMTCSANSSLSYMHWYQQKPGTSPKRWIYDTSELASGVPARFSGSGSGTSYSLTISSMEAEDAATYYCHQRRSYPWTFGGGTKLEIK
notes: Tested as a mouse monoclonal IgG; also called 9-C04

Target: T1, cynomolgus monkey transferrin receptor 1
Assay: average KD, antibody alone; method not given

Row | Binder | Kd [nM]
1 | B1 | 0.376
2 | B2 | 12
3 | B3 | 5.18
4 | B4 | 0.662
5 | B5 | 0.868
6 | B6 | 4.37
7 | B7 | 0.778
8 | B8 | 1.1
9 | B9 | 13.6
10 | B10 | 11.1
11 | B11 | 270
12 | B12 | 5.75
13 | B13 | 1.37
14 | B14 | 2.32
15 | B15 | 0.671
16 | B16 | 12

target: T2, human transferrin receptor 1 (human, UniProt P02786 89-760, limits assumed); assay: average KD, antibody alone; method not given
T2 construct: also called hTfR1; huTfR1

Row | Binder | Kd [nM]
17 | B1 | 0.0678
18 | B2 | 202
19 | B3 | 0.768
20 | B4 | 0.32
21 | B5 | 5.8
22 | B6 | 2.5
23 | B7 | 0.986
24 | B8 | 2.24
25 | B9 | 1.38
26 | B10 | 9.15
27 | B11 | 1.27
28 | B12 | 2.06
29 | B13 | 3.41
30 | B14 | 0.436
31 | B15 | 0.455
32 | B16 | 14.8

target: T2, human transferrin receptor 1; assay: Carterra LSA SPR array, IgG captured on anti-IgG lawn, hTfR1 as analyte, 25 C, 1:1 Langmuir fit
Protocol: Selected anti-TfR1 antibodies were tested for their binding affinity to human TfR1 for measurement of Ka (association rate constant), Kd (dissociation rate constant), and KD (affinity). […] The binding experiment was performed on Carterra LSA at 25 C. An anti-mouse IgG and anti-human IgG antibody “lawn” was prepared on a HC30M chip by amine coupling. 59 IgGs (58 mouse mAbs and 1 human mAb) were captured on the chip. Dilution series of hTfR1, cyTfR1, and hTfR2 were injected to the chip for binding (starting from 1000 nM, 1:3 dilution, 8 concentrations).
Binding data were referenced by subtracting the responses from a buffer analyte injection and globally fitting to a 1:1 Langmuir binding model for estimate of Ka (association rate constant), Kd (dissociation rate constant), and KD (affinity) using the Carterra™ Kinetics software. 5-6 concentrations were used for curve fitting.

Row | Binder | Kd [nM] | kon [M⁻¹ s⁻¹]
33 | B1 | 0.0694 | 144000
34 | B2 | 208 | 66700
35 | B3 | 0.768 | 166000
36 | B4 | 0.401 | 54000
37 | B5 | 5.86 | 42000
38 | B6 | 2.54 | 150000
39 | B7 | 0.986 | 108000
40 | B8 | 1.83 | 49900
41 | B9 | 1.61 | 30100
42 | B10 | 8.22 | 31300
43 | B11 | 1.8 | 79800
44 | B12 | 2.06 | 222000
45 | B14 | 0.436 | 447000
46 | B15 | 0.455 | 22000
47 | B16 | 14.1 | 41000
